Data: patent publication US10005846 (LIFEARC, dated 2018)
Blank lines part the entries; values can stand above or below the binder they belong to.

Columns and labels:
[1] = biological target: T1, human transglutaminase type 2 (TG2) (human, UniProt P21980 1-687); experiment: ELISA on immobilised human TG2; r2 0.9968; EC50 95% confidence range 0.2890 to 0.4002 [panel A]
T1 construct: Recombinant full-length human TG2 (Zedira; cat; T002 in the Biacore work); Also used here for the endogenous TG2 of HepG2 lysate and HK-2 cells; also called hTG2; rhTG2
T1 sequence: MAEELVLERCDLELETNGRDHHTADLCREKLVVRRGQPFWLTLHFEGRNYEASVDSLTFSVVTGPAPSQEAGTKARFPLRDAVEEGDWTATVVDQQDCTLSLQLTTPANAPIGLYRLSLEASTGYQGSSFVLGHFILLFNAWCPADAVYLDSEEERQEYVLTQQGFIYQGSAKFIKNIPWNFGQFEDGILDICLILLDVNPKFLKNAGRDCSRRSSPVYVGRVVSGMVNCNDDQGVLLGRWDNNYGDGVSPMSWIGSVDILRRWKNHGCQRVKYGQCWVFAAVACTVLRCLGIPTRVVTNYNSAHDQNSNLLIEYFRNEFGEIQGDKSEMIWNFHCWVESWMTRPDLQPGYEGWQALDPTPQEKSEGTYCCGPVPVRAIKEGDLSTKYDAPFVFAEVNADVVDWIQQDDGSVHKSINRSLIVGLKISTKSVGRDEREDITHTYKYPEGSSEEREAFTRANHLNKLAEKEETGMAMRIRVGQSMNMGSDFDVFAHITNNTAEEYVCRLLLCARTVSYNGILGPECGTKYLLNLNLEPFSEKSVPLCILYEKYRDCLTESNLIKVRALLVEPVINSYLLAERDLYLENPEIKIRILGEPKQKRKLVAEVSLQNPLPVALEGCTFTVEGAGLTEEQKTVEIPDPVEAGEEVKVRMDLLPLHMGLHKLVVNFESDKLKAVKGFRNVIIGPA
Description: Antibody binding to human and cynomolgus monkey TG2 was determined in an ELISA assay. Clear polystyrene "Maxisorp" 96-well plates (Nunc) were coated with 50 ng purified human or cynomogulus monkey TG2 in 50 µl 0.05 M carbonate-bicarbonate buffer pH 9.6 at 4° C. overnight. Control wells were coated with 50 µl 100 µg/ml bovine serum albumin (BSA). Plates were washed 3× with 300 µl phosphate-buffered saline pH7.4 (PBS) containing 0.1% Tween 20 (PBST) and blocked with 300 µl 3% w/v Marvel skimmed milk in PBS for 1 hour at room temperature. After 3× wash with PBST, 50 µl protein-A purified chimeric or humanised anti-TG2 antibodies or human IgG1 kappa […] control antibody or CUB7402 (Abcam) were serially diluted 4-fold from a top concentration of 50 nM in PBS, and added to the plate in duplicate. […] After 3× washes with PBST, the plates were developed with 50 µl TMB substrate (Sigma) for 5 min at room temperature before stopping the reaction with 25 µl 0.5M H2SO4 and reading absorbance at 450 nm in a microtiter plate reader (BioTek EL808). Dose response curves were analysed and EC50 values and other statistical parameters determined using a 4-parameter logistical fit of the data (GraphPad Prism).

TG3 = biological target: T2, TG3 (human, UniProt Q08188); experiment: ELISA, purified IgG at 0.1 ug/ml, plates coated with 100 ng of each TG [panel B]
T2 construct: recombinant, Zedira; also called recombinant human TG3; Epidermal Transglutaminase
T2 sequence (enzyme, looked up): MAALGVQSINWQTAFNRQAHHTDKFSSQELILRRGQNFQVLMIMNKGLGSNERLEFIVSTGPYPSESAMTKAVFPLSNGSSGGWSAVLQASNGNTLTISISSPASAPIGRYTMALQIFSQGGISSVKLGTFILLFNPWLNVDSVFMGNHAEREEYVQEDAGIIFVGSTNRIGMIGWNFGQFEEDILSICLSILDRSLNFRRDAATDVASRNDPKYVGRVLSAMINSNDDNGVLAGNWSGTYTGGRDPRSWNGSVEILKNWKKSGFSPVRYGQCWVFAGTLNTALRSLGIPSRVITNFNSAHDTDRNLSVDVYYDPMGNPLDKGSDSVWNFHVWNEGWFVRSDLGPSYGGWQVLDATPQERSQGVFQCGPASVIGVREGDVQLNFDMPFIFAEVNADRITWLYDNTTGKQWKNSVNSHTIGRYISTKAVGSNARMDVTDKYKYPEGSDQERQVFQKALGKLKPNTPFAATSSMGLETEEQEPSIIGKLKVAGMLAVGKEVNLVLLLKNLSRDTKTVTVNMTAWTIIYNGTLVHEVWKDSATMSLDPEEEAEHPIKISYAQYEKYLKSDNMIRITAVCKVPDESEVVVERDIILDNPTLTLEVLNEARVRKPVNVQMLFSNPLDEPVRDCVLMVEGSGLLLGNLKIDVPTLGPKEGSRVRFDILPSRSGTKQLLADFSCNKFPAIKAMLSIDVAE
Description: Conditioned medium or purified IgG were tested for reactivity to transglutaminase family members. The ability of each to bind to each transglutaminase (TG1, TG2, TG3, TG5, TG7 and Factor XIIIa; all Zedira) was determined using a plate binding assay. Microtiter plates (Costar, Cambridge, UK) were coated with recombinant TG (Zedira, Darmstadt, Germany) in 50 μl of 0.1 M bicarbonate/carbonate buffer (pH 9.6) overnight at 4° C. Plates were blocked for 2 h at 37° C. with 200 μl PBS containing 3% w/v BSA. Plates were washed three times with PBS containing 0.05% Tween 20 (washing buffer) and 100 μl of diluted conditioned medium (dilution 1:5 to 1:20) or purified anti-TG2 catalytic core mAbs was added. Plates were incubated for a further 1 h at room temperature. The washing step was repeated and anti-mouse gamma chain-horseradish peroxidase (1:5000) in PBS containing 0.05% Tween 20 (v:v) and 1% BSA (w:v) (Sigma, Poole UK) was added for 1 h. […] The reaction was stopped by adding 25 μl of 0.1 M H_2SO_4 and the absorbance at 450 nm was determined.

- EC50 [1]: 0.34 nM
B1: cDH001 chimeric antibody (murine DH2 variable regions) (antibody, human IgG1, V domains shown)
VH: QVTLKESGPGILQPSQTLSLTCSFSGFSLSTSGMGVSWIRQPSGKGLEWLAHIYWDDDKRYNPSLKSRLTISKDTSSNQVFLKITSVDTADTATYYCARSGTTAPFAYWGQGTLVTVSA
VL: QIVLTQSPAIMSASPGEKVTMTCSASSSVSYMYWYQQKPGSSPRLLIYDTSNLASGVPVRFSGSGSGTSYSLTISRMEAEDAATFYCQQWSSSPLTFGAGTKLELK

- binding result (TG3): no binding (tested: 0.1 ug/ml)
B2: DC1 murine monoclonal antibody (antibody, V domains shown)
VH: EVQLVESGGGLVKPGGSLKLSCAASGFTLSTHAMSWVRQTPEKRLEWVATISSGGRSTYYPDSVKGRFTISRDNVKNTLYLQLSSLRSEDTAVYFCARLISTYWGQGTTLTVSS
VL: DITMTQSPSSIYASLGERVTITCKASQDINSYLTWFQQKPGKSPKILIYLVNRLVDGVPSRFSGSGSGQDYALTISSLEYEDMGIYYCLQYDDFPYTFGGGTKLEIK
notes: Mouse hybridoma IgG; heavy chain amplified with primer MHCG1, kappa light chain; also called mDC001
